# Reference: patent US20260043020A1, “BINDING MEMBERS WITH ALTERED DIVERSITY SCAFFOLD DOMAINS” (priority 2016, published 2026)
# T1: human ASIC1a (human) (UniProt P78348)
# T1 sequence (looked up): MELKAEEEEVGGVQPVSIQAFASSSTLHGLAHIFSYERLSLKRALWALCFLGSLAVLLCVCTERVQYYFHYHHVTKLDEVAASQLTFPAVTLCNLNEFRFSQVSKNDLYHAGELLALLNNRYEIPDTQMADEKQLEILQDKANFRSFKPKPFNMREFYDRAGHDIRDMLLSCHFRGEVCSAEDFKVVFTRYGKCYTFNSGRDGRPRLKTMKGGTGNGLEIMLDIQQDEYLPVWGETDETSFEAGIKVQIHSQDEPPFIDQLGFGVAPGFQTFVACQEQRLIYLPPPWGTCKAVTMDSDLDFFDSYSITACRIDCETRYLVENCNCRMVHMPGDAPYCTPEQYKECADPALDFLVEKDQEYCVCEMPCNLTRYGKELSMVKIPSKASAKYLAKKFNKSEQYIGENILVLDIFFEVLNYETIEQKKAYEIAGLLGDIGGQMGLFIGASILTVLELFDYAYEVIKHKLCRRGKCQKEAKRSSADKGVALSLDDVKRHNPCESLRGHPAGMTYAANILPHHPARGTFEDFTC
# B1: KB_A07 IgG1 (EETI-II fusion, isotype control) (antibody, V domains shown)
# VH: EVQLVESGGGLVRPGGSLRLSCAASGFTFSSYAMSWVRQAPGKGLEWVSAISGSGGSTYYADSVKGRFTISRDNTKNSLYLQMTSLRADDTAFYYCVKDFGPGYGTGWFDYWGPGTLVTVSS
# VL: YLNWYQQKPGKAPKLLIYAAGVCPRILMRCKQDSDCLAGCVCGPNGFCGSRSGVPSRFSGSGSGTDFTLTISSLQPEDFATYYCQQGASPPYTFGQGTKVEIKR
# B2: KB_A12_Shk (antibody, V domains shown)
# VH: EVQLVESGGGLVRPGGSLRLSCAASGFTFSSYAMSWVRQAPGKGLEWVSAISGSGGSTYYADSVKGRFTISRDNTKNSLYLQMTSLRADDTAFYYCVKDFGPGYGTGWFDYWGPGTLVTVSS
# VL: NWYQQLPGKAPKLLIYAAGRRSCIDTIPKSRCTAFQCKHSMKYRLSFCRKTCGTCANSGVSDRFSAAKSGTSASLAINGLRSEDEADYYCAAWDDSLNGYVFGTGTKLTVLG
# B3: KB_A07 scFv-Fc, membrane anchored on HEK293 cells (Fc fusion)
# VH: EVQLVESGGGLVRPGGSLRLSCAASGFTFSSYAMSWVRQAPGKGLEWVSAISGSGGSTYYADSVKGRFTISRDNTKNSLYLQMTSLRADDTAFYYCVKDFGPGYGTGWFDYWGPGTLVTVSS
# VL: DIQMTQSPSSLSASVGDRVTITCRASQSISSYLNWYQQKPGKAPKLLIYAAGVCPRILMRCKQDSDCLAGCVCGPNGFCGSRSGVPSRFSGSGSGTDFTLTISSLQPEDFATYYCQQGASPPYTFGQGTKVEIKRT
# B4: KB A12_B-gal_F07 (scFv, V domains shown)
# VH: EVQLVESGGGLVRPGGSLRLSCAASGFTFSSYAMSWVRQAPGKGLEWVSAISGSGGSTYYADSVKGRFTISRDNTKNSLYLQMTSLRADDTAFYYCVKDFGPGYGTGWFDYWGPGTLVTVSS
# VL: AVNWYQQLPGKAPKLLIYAAGRCRTTANVRRHCKQDSDCLAGCVCGPNGFCGANSGVSDRFSAAKSGTSASLAINGLRSEDEADYYCAAWDDSLNGYVFGTGTKLTVLG
# B5: KB_A12 scFv-Fc, membrane anchored on HEK293 cells (Fc fusion)
# VH: EVQLVESGGGLVRPGGSLRLSCAASGFTFSSYAMSWVRQAPGKGLEWVSAISGSGGSTYYADSVKGRFTISRDNTKNSLYLQMTSLRADDTAFYYCVKDFGPGYGTGWFDYWGPGTLVTVSS
# VL: QSVLTQPPSVSEAPRQRVTITCSGSSSNIGNNAVNWYQQLPGKAPKLLIYAAGRCPRILMRCKQDSDCLAGCVCGPNGFCGANSGVSDRFSAAKSGTSASLAINGLRSEDEADYYCAAWDDSLNGYVFGTGTKLTVLGQP
# B6: KB_A12 IgG1 (EETI-II fusion, isotype control) (antibody, V domains shown)
# VH: EVQLVESGGGLVRPGGSLRLSCAASGFTFSSYAMSWVRQAPGKGLEWVSAISGSGGSTYYADSVKGRFTISRDNTKNSLYLQMTSLRADDTAFYYCVKDFGPGYGTGWFDYWGPGTLVTVSS
# VL: AVNWYQQLPGKAPKLLIYAAGRCPRILMRCKQDSDCLAGCVCGPNGFCGANSGVSDRFSAAKSGTSASLAINGLRSEDEADYYCAAWDDSLNGYVFGTGTKLTVLG
# B7: KB_A07_Kaliotoxin (KTX) (antibody, V domains shown)
# VH: EVQLVESGGGLVRPGGSLRLSCAASGFTFSSYAMSWVRQAPGKGLEWVSAISGSGGSTYYADSVKGRFTISRDNTKNSLYLQMTSLRADDTAFYYCVKDFGPGYGTGWFDYWGPGTLVTVSS
# VL: DIQMTQSPSSLSASVGDRVTITCRASQSISSYLNWYQQKPGKAPKLLIYAAGVGVEINVKCSGSPQCLKPCKDAGMRFGKCMNRKCHCTPKSRSGVPSRFSGSGSGTDFTLTISSLQPEDFATYYCQQGASPPYTFGQGTKVEIKR
# Experiments:
# human Kv 1.3 (human) = human Kv 1.3 (human) (UniProt P22001); assay: cell-based or functional assay
# Chain of human Kv 1.3 (human) (P22001 whole entry): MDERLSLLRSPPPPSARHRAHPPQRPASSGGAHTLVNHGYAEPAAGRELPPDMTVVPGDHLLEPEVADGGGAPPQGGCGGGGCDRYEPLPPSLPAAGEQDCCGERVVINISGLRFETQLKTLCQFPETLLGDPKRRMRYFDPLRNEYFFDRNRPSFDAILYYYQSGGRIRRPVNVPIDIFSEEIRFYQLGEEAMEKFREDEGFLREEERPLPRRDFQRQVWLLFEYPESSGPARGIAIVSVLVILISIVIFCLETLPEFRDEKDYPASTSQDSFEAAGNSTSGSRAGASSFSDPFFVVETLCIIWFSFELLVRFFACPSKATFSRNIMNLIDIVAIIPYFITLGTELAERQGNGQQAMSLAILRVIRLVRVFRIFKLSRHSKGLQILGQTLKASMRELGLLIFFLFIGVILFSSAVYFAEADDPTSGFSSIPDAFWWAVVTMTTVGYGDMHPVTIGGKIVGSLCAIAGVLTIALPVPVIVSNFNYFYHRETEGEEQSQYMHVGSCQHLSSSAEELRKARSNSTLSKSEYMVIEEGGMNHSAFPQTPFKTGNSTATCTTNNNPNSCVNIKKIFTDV
# human ASIC1a (human) = molecular target: T1, human ASIC1a (human); assay: cell-based or functional assay
# trypsin [1] = assay: flow cytometry of HEK293 cells 15 days post transfection, biotinylated trypsin/streptavidin-APC (FL4) against anti-Fc-PE (FL2)
# trypsin [2] = assay: flow cytometry, biotinylated trypsin with streptavidin-APC
# β-galactosidase = assay: monoclonal phage TRF ELISA on B-galactosidase
# Chain of β-galactosidase (P00722 2-1024): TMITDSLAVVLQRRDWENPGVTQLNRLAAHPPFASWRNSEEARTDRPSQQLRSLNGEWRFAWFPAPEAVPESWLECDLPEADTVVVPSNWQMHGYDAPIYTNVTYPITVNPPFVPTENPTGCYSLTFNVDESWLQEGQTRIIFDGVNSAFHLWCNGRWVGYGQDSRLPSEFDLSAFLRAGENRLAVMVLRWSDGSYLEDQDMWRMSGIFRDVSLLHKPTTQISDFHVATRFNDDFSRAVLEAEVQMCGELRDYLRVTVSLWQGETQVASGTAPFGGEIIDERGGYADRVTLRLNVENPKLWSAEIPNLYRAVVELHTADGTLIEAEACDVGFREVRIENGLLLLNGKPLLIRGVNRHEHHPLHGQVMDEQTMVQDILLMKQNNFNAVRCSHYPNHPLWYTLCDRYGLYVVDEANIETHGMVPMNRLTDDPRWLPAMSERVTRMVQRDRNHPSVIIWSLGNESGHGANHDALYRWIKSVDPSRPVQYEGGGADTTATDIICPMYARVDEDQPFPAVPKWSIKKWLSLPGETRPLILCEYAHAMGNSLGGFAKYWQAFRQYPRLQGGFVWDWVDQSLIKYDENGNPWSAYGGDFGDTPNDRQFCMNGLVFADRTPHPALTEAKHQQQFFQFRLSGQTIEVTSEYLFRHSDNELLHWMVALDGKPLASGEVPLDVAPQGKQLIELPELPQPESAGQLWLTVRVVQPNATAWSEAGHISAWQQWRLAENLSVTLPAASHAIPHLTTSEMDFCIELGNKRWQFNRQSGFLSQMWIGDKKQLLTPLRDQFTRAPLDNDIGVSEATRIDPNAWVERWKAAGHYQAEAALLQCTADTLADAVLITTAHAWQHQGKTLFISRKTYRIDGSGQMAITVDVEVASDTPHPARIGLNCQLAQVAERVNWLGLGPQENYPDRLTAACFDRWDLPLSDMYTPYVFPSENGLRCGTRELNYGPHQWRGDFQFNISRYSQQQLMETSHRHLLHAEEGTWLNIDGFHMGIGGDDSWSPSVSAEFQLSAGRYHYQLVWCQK
binder,measurement,setting,value
B1,"IC50, inhibition of huKv1.3 currents (QPatch, CHO cells)",human Kv 1.3 (human),> 10000 nM
same,"% ASIC1a current remaining, 6 µM KnotBody (QPatch, HEK293 cells)",human ASIC1a (human),70.9%
B2,"IC50, inhibition of huKv1.3 currents (QPatch, CHO cells)",human Kv 1.3 (human),20 nM
B3,"cells in Q1 (trypsin/streptavidin-APC positive, anti-Fc-PE negative)",trypsin [1],3.65%
same,cells in Q2 (anti-Fc-PE positive and trypsin/streptavidin-APC positive),trypsin [1],33.8%
same,"cells in Q3 (anti-Fc-PE positive, trypsin/streptavidin-APC negative)",trypsin [1],11.1%
same,% of transfected HEK293 cells dual stained for Fc and trypsin,trypsin [2],34%
B4,TRF signal,β-galactosidase,246000
B5,"cells in Q1 (trypsin/streptavidin-APC positive, anti-Fc-PE negative)",trypsin [1],1.54%
same,cells in Q2 (anti-Fc-PE positive and trypsin/streptavidin-APC positive),trypsin [1],11.2%
same,"cells in Q3 (anti-Fc-PE positive, trypsin/streptavidin-APC negative)",trypsin [1],3.78%
same,% of transfected HEK293 cells dual stained for Fc and trypsin,trypsin [2],11%
B6,"IC50, inhibition of huKv1.3 currents (QPatch, CHO cells)",human Kv 1.3 (human),> 10000 nM
same,"% ASIC1a current remaining, 3.3 µM KnotBody (QPatch, HEK293 cells)",human ASIC1a (human),67.4%
B7,"IC50, inhibition of huKv1.3 currents (QPatch, CHO cells)",human Kv 1.3 (human),900 nM
